To fix the notation:
B1: HLAA3_1 (VHH)
VHH: EVQLVESGGGLVQPGGSLRLSCAASGFNVQGDGMHWVRQAPGKGLEWVAMVGPYSSYTYYADSVKGRFTISADTSKNTAYLQMNSLRAEDTAVYYCSRYSDGAFDYWGQGTLVTVSS
B2: HLAA3_8 (VHH)
VHH: EVQLVESGGGLVQPGGSLRLSCAASGFNIYSYYIHWVRQAPGKGLEWVAKIYPDSGYTYYADSVKGRFTISADTSKNTAYLQMNSLRAEDTAVYYCSRSFSRYGYMDYWGQGTLVTVSS
B3: HLAA3_4 (VHH)
VHH: EVQLVESGGGLVQPGGSLRLSCAASGFNIYSYAMHWVRQAPGKGLEWVASFVPGSYATYYADSVKGRFTISADTSKNTAYLQMNSLRAEDTAVYYCSRGYYASYYFDVWGQGTLVTVSS
B4: HLAA3_11 (VHH)
VHH: EVQLVESGGGLVQPGGSLRLSCAASGFNIYSYGIHWVRQAPGKGLEWVAKVSPSSGYTYYADSVKGRFTISADTSKNTAYLQMNSLRAEDTAVYYCSRQYGYPYYFDYWGQGTLVTVSS
B5: HLAA3_7 (VHH)
VHH: EVQLVESGGGLVQPGGSLRLSCAASGFNVYYYWMHWVRQAPGKGLEWVASIYPDSDNTYYADSVKGRFTISADTSKNTAYLQMNSLRAEDTAVYYCSRGDYYYSYLDYWGQGTLVTVSS
B6: HLAA3_10 (VHH)
VHH: EVQLVESGGGLVQPGGSLRLSCAASGFNVYYSGMHWVRQAPGKGLEWVAKISPDSGSTYYADSVKGRFTISADTSKNTAYLQMNSLRAEDTAVYYCSRDMYSVRSAMDYWGQGTLVTVSS
B7: HLAA3_5 (VHH)
VHH: EVQLVESGGGLVQPGGSLRLSCAASGFNLSYYWMHWVRQAPGKGLEWVASIYPDGSYTWYADSVKGRFTISADTSKNTAYLQMNSLRAEDTAVYYCSRGTYFAMDYWGQGTLVTVSS
B8: HLAA3_9 (VHH)
VHH: EVQLVESGGGLVQPGGSLRLSCAASGFNISTWLIHWVRQAPGKGLEWVAVVYPDSSYTYYADSVKGRFTISADTSKNTAYLQMNSLRAEDTAVYYCSRSWFSKSAMDYWGQGTLVTVSS
B9: HLAA3_6 (VHH)
VHH: EVQLVESGGGLVQPGGSLRLSCAASGFNIFGYYMHWVRQAPGKGLEWVAVVSPGSGYTNYADSVKGRFTISADTSKNTAYLQMNSLRAEDTAVYYCSRALYSAYFAYWGQGTLVTVSS
B10: HLAA3_3 (VHH)
VHH: EVQLVESGGGLVQPGGSLRLSCAASGFNIYSYAMHWVRQAPGKGLEWVASVAPGSGYTYYADSVKGRFTISADTSKNTAYLQMNSLRAEDTAVYYCSRNKYYTAYYMDYWGQGTLVTVSS
B11: HLAA3_2 (VHH)
VHH: EVQLVESGGGLVQPGGSLRLSCAASGFNITKYSIHWVRQAPGKGLEWVAMVGPYSSYTYYADSVKGRFTISADTSKNTAYLQMNSLRAEDTAVYYCSRFYSSYAFDVWGQGTLVTVSS

For this assay, the target named is HLA-A3 on CFPAC parental cells (Homo sapiens, HLA-A3 serotype, allele …, strain).
On to B1, for which the binding result is listed as “binds”.
To B2 belongs “binds”.
To B3 belongs “binds”; to B4, “binds”; to B5, “binds”.
With B6, the binding result was “binds”.
Then B7, with “binds”; and B8, with “binds”.
Regarding B9, the binding result is recorded as “binds”.
Then B10, with “binds”; and B11, with “binds”.

The values above are taken from article PMC9808734 (Nature Communications, 2023).
